Measurements as given in paper PMC6251370.

Target: recombinant N-terminal SH3 domain (SH3N) of CRKL with a C-terminal hexahistidine tag (human)
Assay: dynamic mass redistribution

With QPPPVPAKKS [peptide corresponding to the second PXXPXK motif of SASH1 (aa982–991)] the Kd was 7.38 µM.
